The values that follow come from article PMC6458997.

One series addresses T1, AimR N202A (SPbeta) (Bacillus subtilis phage SPbeta (cloned …, UniProt O31927 1-386, N202A)).
T1 sequence: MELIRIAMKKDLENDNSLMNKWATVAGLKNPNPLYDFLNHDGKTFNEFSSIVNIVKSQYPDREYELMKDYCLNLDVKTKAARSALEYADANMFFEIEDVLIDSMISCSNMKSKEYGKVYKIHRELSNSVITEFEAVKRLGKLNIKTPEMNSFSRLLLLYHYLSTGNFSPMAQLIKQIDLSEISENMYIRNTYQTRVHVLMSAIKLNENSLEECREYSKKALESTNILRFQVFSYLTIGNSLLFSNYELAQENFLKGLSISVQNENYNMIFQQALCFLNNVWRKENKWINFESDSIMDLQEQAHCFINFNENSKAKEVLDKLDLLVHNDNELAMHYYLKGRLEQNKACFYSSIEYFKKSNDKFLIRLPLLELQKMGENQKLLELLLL
As to the kind of experiment: EMSA; apo; WT probe assumed; EMSA: 50 mM HEPES pH 7.5, 5 mM MgCl2, 75 mM NaCl, 0.5 mM EDTA; 0.4 uM DNA, 4 uM AimR; 10 min at room temperature; 8% PAGE in TBE at 4 C or agarose in TAE at room temperature. As to conditions: protein: recombinant; tags: N-terminal 6xHis-TEV, cleaved (as WT); chain copies: 2. For orientation: Mobility shift assays separate free from complexed probe on a gel.

For a further series, the target named is T2, AimR D360A (SPbeta) (Bacillus subtilis phage SPbeta (cloned …, UniProt O31927 1-386, D360A)).
T2 sequence: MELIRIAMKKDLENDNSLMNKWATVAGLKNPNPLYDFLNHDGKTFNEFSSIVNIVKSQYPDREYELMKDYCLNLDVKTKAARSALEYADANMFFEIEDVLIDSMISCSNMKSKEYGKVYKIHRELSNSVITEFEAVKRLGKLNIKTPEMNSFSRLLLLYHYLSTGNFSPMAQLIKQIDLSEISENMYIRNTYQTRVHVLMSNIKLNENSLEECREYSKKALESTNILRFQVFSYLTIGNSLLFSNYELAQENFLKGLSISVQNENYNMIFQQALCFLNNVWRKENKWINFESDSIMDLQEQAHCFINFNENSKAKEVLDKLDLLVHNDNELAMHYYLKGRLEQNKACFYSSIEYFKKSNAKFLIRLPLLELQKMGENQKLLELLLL
The description is as above. As to conditions: protein: recombinant; tags: N-terminal 6xHis-TEV, cleaved (as WT); chain copies: 2.

B1: SPbeta operator WT 45 bp (dsDNA)
DNA 1: GTTGATCACTAGATGTTATTAAAACCTAATATTTAAGTGATGGCC
DNA 2: GGCCATCACTTAAATATTAGGTTTTAATAACATCTAGTGATCAAC
Consider B1, for which the binding result is “binds” with AimR N202A (SPbeta) and “no binding” in the series with AimR D360A (SPbeta).
